# B1: Histag-FGF20 (recombinant human fibroblast growth factor 20) (natural protein)
# chain: not shown
# notes: Fibroblast growth factor 20, human; Made in E. coli, so not glycosylated; source: Escherichia coli, expressed and purified as described [37]
# Target: the molecule itself
# Assay: SEC-MALS; Superdex 200 HR10/300 in series with Wyatt Dawn8+ and Optilab T-rEX, 22°C; 100 µl, 100 µg protein; 150 mM NaCl with 50 mM HEPES or 50 mM Tris-Cl, pH 7.4; 0.75 ml/min
protein,measurement,value
B1,stoichiometry N,2

# Source: PMC4821243, “Heparin binding preference and structures in the fibroblast growth factor family parallel their evolutionary diversification” (Open Biology, 2016)
